Residue numbers refer to the chain shown, from its start. Where two headings read alike, the source gives them in different places.

What all share (assay): cell-based or functional assay
Experiment [1] has as its target PD-1 (on CHO-PD1 engineered cell line; on activated CD8+ T cells) (UniProt Q15116 25-288, limits assumed).
Experiment [2] has as its target T1, IL-2Rβ/γc complex (intermediate affinity receptor) on primary human CD8+ T cells (human, UniProt P14784 27-551; P31785 23-369).
T1 sequence (looked up) 1: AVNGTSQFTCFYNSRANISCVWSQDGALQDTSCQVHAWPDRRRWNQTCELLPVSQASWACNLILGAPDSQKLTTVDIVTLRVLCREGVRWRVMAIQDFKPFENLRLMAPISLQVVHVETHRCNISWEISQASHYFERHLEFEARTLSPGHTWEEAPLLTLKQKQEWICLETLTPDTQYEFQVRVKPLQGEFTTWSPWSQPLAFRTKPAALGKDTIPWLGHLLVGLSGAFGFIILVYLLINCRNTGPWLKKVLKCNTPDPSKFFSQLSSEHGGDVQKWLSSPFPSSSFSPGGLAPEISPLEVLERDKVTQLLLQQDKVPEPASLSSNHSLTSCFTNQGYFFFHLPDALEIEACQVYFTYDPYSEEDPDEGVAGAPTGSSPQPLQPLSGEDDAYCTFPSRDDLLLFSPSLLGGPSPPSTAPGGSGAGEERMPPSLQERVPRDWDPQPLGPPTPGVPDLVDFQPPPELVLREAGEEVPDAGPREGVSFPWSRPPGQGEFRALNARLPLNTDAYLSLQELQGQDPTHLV
T1 sequence (looked up) 2: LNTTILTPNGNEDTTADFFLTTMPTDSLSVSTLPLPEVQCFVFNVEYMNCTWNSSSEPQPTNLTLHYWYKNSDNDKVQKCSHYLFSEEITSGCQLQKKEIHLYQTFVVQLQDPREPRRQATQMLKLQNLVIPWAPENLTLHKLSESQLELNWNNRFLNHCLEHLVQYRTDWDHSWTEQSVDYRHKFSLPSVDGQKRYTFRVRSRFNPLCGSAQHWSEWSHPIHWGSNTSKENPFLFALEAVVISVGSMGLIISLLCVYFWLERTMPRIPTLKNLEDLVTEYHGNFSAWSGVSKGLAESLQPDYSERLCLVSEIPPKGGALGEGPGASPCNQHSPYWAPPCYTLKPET

The target of experiment [3] is T2, IL-2Rα/β/γc complex (high affinity receptor) on human activated CD8+ T cells (human, UniProt P01589 22-272; P14784 27-551; P31785 23-369).
T2 sequence (looked up) 1: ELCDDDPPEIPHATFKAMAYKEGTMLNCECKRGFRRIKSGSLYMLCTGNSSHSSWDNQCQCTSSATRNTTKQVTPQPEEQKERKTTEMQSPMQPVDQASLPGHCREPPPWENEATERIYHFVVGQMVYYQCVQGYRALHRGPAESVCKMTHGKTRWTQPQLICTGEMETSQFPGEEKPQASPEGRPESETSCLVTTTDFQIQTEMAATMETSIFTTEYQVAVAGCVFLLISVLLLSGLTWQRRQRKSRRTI
T2 sequence (looked up) 2: T1 sequence (looked up) 1
T2 sequence (looked up) 3: T1 sequence (looked up) 2

For experiment [4], the target named is T1, IL-2Rβ/γc complex (intermediate …). The source holds these as a separate data set.
The target in experiment [5] is T2, IL-2Rα/β/γc complex (high affinity …). The source holds these as a separate data set.
Experiment [6] addresses IL-2Rα/β/γc complex (high affinity receptor) on human activated CD8+ T cells (human) (UniProt P01589).

B1: W3XX115-T2U3.E44-15.uIgG4V322 (Fc fusion)
chain: APTSSSTKKTQLQLEHLLLDLQMILNGINNYKNPKLTRMLTVKFYMPKKATELKHLQCLEEELKPLEEVLNLAQSKNFHLRPRDLISNINVIVLELKGSETTFMCEYADETATIVEFLNRWITFCQSIIESKYGPPCPPCPAPEAAGGPSVFLFPPKPKDTLMISRTPEVTCVVVDVSQEDPEVQFNWYVDGVEVHNAKTKPREEQFNSTYRVVSVLTVLHQDWLNGKEYKCKVSNKGLPSSIEKTISKAKGQPREPQVYTLPPCQEEMTKNQVSLWCLVKGFYPSDIAVEWESNGQPENNYKTTPPVLDSDGSFFLYSRLTVDKSRWQEGNVFSCSVMHEALHNHYTQKSLSLSLGK
heavy: QVQLVQSGAEVKKPGSSVKVSCKASGFTFTTYYISWVRQAPGQGLEYLGYINMGSGGTNYNEKFKGRVTITADKSTSTAYMELSSLRSEDTAVYYCAIIGYFDYWGQGTMVTVSSASTKGPSVFPLAPCSRSTSESTAALGCLVKDYFPEPVTVSWNSGALTSGVHTFPAVLQSSGLYSLSSVVTVPSSSLGTKTYTCNVDHKPSNTKVDKRVESKYGPPCPPCPAPEAAGGPSVFLFPPKPKDTLMISRTPEVTCVVVDVSQEDPEVQFNWYVDGVEVHNAKTKPREEQFNSTYRVVSVLTVLHQDWLNGKEYKCKVSNKGLPSSIEKTISKAKGQPREPQVCTLPPSQEEMTKNQVSLSCAVKGFYPSDIAVEWESNGQPENNYKTTPPVLDSDGSFFLVSRLTVDKSRWQEGNVFSCSVMHEALHNHYTQKSLSLSLGK
light: DVVMTQSPLSLPVTLGQPASISCRSSQSLLDSDGGTYLYWFQQRPGQSPRRLIYLVSTLGSGVPDRFSGSGSGTDFTLKISRVEAEDVGVYYCMQLTHWPYTFGQGTKLEIKRTVAAPSVFIFPPSDEQLKSGTASVVCLLNNFYPREAKVQWKVDNALQSGNSQESVTEQDSKDSTYSLSSTLTLSKADYEKHKVYACEVTHQGLSSPVTKSFNRGEC
Take B1: in experiment [1], the “PD-1+/PD-1- ratio (pSTAT5 potency, activated versus primary CD8+ T)” value (from here on “PD-1+/PD-1- ratio”) was found to be 496 fold. Further, in experiment [2], the “Potency reduction, pSTAT5, human primary CD8+ T” value was 132 fold and the “pSTAT5 EC50, human primary CD8+ T” value stood at 1.87 µM. In experiment [3], the “Potency reduction, pSTAT5, human activated CD8+ T (CD25 positive and PD-1 positive)” value amounted to 139 fold; the “pSTAT5 EC50, human activated CD8+ T (CD25 positive and PD-1 positive)” value (from here on “pSTAT5 EC50 … (CD25 positive and PD-1 positive)”) is 3.78 nM.

B2: W3XX115-T2U3.E44-20.uIgG4V322 (Fc fusion)
chain: B1 chain with R38W, V42F
heavy: B1 heavy
light: B1 light
With B2, the “PD-1+/PD-1- ratio” value in experiment [1] is 669 fold. In experiment [2], the “Potency reduction, pSTAT5, human primary CD8+ T” value worked out at 56.8 fold and the “pSTAT5 EC50, human primary CD8+ T” value worked out at 809 nM. In experiment [3], the “Potency reduction, pSTAT5, human activated CD8+ T (CD25 positive and PD-1 positive)” value worked out at 44.3 fold; the “pSTAT5 EC50 … (CD25 positive and PD-1 positive)” value turned out to be 1.21 nM.

B3: W3XX115-T2U3.E44-33.uIgG4V322 (Fc fusion)
chain: B1 chain with R38W, V42F, I129L
heavy: B1 heavy
light: B1 light
B3: the “PD-1+/PD-1- ratio” value in experiment [1] is 283 fold. Also, in experiment [2], the “Potency reduction, pSTAT5, human primary CD8+ T” value was 26.2 fold and the “pSTAT5 EC50, human primary CD8+ T” value was found to be 373 nM. In experiment [3], the “Potency reduction, pSTAT5, human activated CD8+ T (CD25 positive and PD-1 positive)” value is 48.6 fold; the “pSTAT5 EC50 … (CD25 positive and PD-1 positive)” value was 1.32 nM.

B4: W3XX115-T2U0.E44-48.uIgG4V322 (Fc fusion)
chain: APTSSSTKKTQLQLEHLLLDLQMILNGINNYKNPKLTRMLTFKFYMPKKATELKHLQCLEEELKPLEEVLNLAQSKNFHLRPRDLISNINVIVLELKGSETTFMCEYADETATIVEFLNRWYTFCQSILESKYGPPCPPCPAPEAAGGPSVFLFPPKPKDTLMISRTPEVTCVVVDVSQEDPEVQFNWYVDGVEVHNAKTKPREEQFNSTYRVVSVLTVLHQDWLNGKEYKCKVSNKGLPSSIEKTISKAKGQPREPQVYTLPPCQEEMTKNQVSLWCLVKGFYPSDIAVEWESNGQPENNYKTTPPVLDSDGSFFLYSRLTVDKSRWQEGNVFSCSVMHEALHNHYTQKSLSLSLG
heavy: EIQLQQSGPELVKPGASVKVSCKASGYSFTDYNMYWVKQSHGESLEWIGYIDPYNGGTRYNQKFKGKATLTVDKSSSTAFMHLNSLTSEDSAVYYCARNGHWDGAWFAYWGQGTLVTVSAASTKGPSVFPLAPCSRSTSESTAALGCLVKDYFPEPVTVSWNSGALTSGVHTFPAVLQSSGLYSLSSVVTVPSSSLGTKTYTCNVDHKPSNTKVDKRVESKYGPPCPPCPAPEAAGGPSVFLFPPKPKDTLMISRTPEVTCVVVDVSQEDPEVQFNWYVDGVEVHNAKTKPREEQFNSTYRVVSVLTVLHQDWLNGKEYKCKVSNKGLPSSIEKTISKAKGQPREPQVCTLPPSQEEMTKNQVSLSCAVKGFYPSDIAVEWESNGQPENNYKTTPPVLDSDGSFFLVSRLTVDKSRWQEGNVFSCSVMHEALHNHYTQKSLSLSLG
light: DIQMNQSPSSLSASLGDTITITCHASQNINVWLSWYQQKPGNIPKLLIYKASNLHTGVPSRFSGSRSGTGFTLTISSLQPEDIATYYCHQGQSYPFTFGSGTKLEIKRTVAAPSVFIFPPSDEQLKSGTASVVCLLNNFYPREAKVQWKVDNALQSGNSQESVTEQDSKDSTYSLSSTLTLSKADYEKHKVYACEVTHQGLSSPVTKSFNRGEC
As to B4, in experiment [4], the “Potency reduction, pSTAT5, human primary CD8+ T” value was 2.7 fold and the “pSTAT5 EC50, human primary CD8+ T” value stood at 300 nM. In experiment [5], the “Potency reduction, pSTAT5, human activated CD8+ T” value amounted to 14.7 fold and the “pSTAT5 EC50, human activated CD8+ T” value was 0.25 nM.

B5: W3XX115-T2U0.E44-49.uIgG4V322 (Fc fusion)
chain: B4 chain with K32D, Y122I
heavy: B4 heavy
light: B4 light
Regarding B5, in experiment [4], the “Potency reduction, pSTAT5, human primary CD8+ T” value turned out to be 3.8 fold and the “pSTAT5 EC50, human primary CD8+ T” value stood at 425 nM. In experiment [5], the “Potency reduction, pSTAT5, human activated CD8+ T” value came out at 22.2 fold and the “pSTAT5 EC50, human activated CD8+ T” value is 0.38 nM.

B6: W3XX115-BMK8 (Fc fusion, part only; not given: Fab heavy and light chains, part only)
chain: APTSSSTKKTQLQLEHLRLDLEMILNGINNYKNPKLTRMLTFKFYMPKKATELKHLQCLEEELKPLEEVLNLAQSKNFHLRPRDLISNINVIVLELKGSETTFMCEYADETATIVEFLNRWITFCKSIISTLTESKYGPPCPPCPAPEFLGGPSVFLFPPKPKDTLMISRTPEVTCVVVDVSQEDPEVQFNWYVDGVEVHNAKTKPREEQFNSTYRVVSVLTVLHQDWLNGKEYKCKVSNKGLPSSIEKTISKAKGQPREPQVYTLPPCQEEMTKNQVSLWCLVKGFYPSDIAVEWESNGQPENNYKTTPPVLDSDGSFFLYSRLTVDKSRWQEGNVFSCSVMHEALHNHYTQKSLSLSLG
Turning to B6, in experiment [6], the Potency reduction, pSTAT5, human activated CD8+ T was determined as 7.2 fold and the pSTAT5 EC50, human activated CD8+ T came out at 0.12 nM.
